Experimental data from patent publication US20250340597A1.

Biological target: CH848.d0949.10.17 DT (HIV-1)
Assay: not stated (FIG. 4)

DH270 UCA Fab showed a Kd of 60 nM.
